Measurements: the nanobody polyreactivity screen of Harvey et al. (2022)

experiment: yeast display, Sf9 membrane polyspecificity reagent, FACS + sequencing; frameworks hold sequencing errors
Outline: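 Using colony PCR, genes from sorted yeast display clones were amplified, then sequenced on MiSeq at 2 × 250 and filtered by CDR length. The clones had been stained with 10% biotinylated, detergent-solubilized Sf9 membrane reagent for 1 hour at 4 °C and sorted by FACS into low and high (top ~1%) gates on anti-HA and streptavidin fluorescence. Polyreactivity labels come from the gate of origin.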

| Sequence | polyreactivity (PSR sort gate) |
| --- | --- |
| QVQLVESGGGLVQAGGSLRLSCAASGSTFVNNAMGWYRQAPGKERELVAAIRSSGGSTYYADSVKGRFTISRDNAKNTVSLQMNSLKPEDTAVYYCNADRWKYELDYWGQGTQVTVSS | high polyreactivity |
| QVQLVESGGGLVQAGGSLRLSCAASGSIFNAYAMGWYRQAPGKERELVAAISKRTSYADSVKGRFTISRDNAKNTVYLQMNSLKPEDTAVYYCAKEVDEPDGYEYDYWGQGTQVTVSS | low polyreactivity |
| QVQLVESGGGLVQAGGSLRLSCAASGSIFNKYAMGWYRQAPGKERELVATISFRGGSTYADSVKGRFTISRDNAKNTVYLQMNSLKPEDTAVYYCATKSGRNSPRMDYWGQGTQVTVSS | high polyreactivity |
| QVQLVESGGGLVQAGGSLRLSCAASGRTFVGYVMGWYRQAPGKERELVAAISKIGGRTYYADSVKGRFTISRDNAKNTVYLQMNSLKTEDTAVYYCAAERTKSIKLPRPGSMDYWGQGTQVTVSS | low polyreactivity |
| QVQLVESGGGLVQAGGSLRLSCAASGRIFFWYAMGWYRQAPGTERELVAGITSGGSTNYADSVKGRFTISRDNAKNTVYLQMNSLKPEDTAVYYCAKRSYRTHTYDYWGQGTQVTVSS | low polyreactivity |
| QVQLVESGGGLVQSGGSLLLSCAASGFTFGRYAMAWYRQAPGKERELVAAIRRSGGSTYYADSVKGRFTISRDNAKNTVYLQMNSRKPEDTAVFYCAAVRWWTYGNYDYWGQGTQVTVSS | high polyreactivity |
| QVQLVESGGGLVQAGGSLRLICAASGRIFGANAMGWYIQAPGKERELVAAISRTGGSKYYADSVKGRFTISRDNAKNTVYLQMNSLKPEDTAVYYCNAVYRYAHPMEYWGQGTQVTVSS | high polyreactivity |
| QVQLVESGGGLVQAGGSLRLSCAASGRILSFYAMGWYRQAPGKEREFVATITWSGGSTYADSVKGRFTISRDNANNSVYLQMNSLKPEDTAVYYCNAELSNYKYDYWGQGTHVTVSS | low polyreactivity |
| QVQLVETGGGLVQAGGSLRLSSAASGRTFAYYAMGWYRQAPGKERELVAAISSGGGSTYYADSVKGRFTISRDNAKNTVYLQMNSVKPEDTAVYYCNKGFNYCGWFKKYGYWGQGTQVTVSS | high polyreactivity |
| QVQLVESGGGLVQAGGSLRLSCDASGFIFNYYVMGWYRQAPGKERELVAAISRSGGSTYYADSVKGRFTISRDNAKNTVYLQKNSLKTEDTAVYYCAAEYGYGKRAYDSWGQGTQVTVSS | high polyreactivity |
| QVQLVESGGGLVQAGGSLRLSCAASGSIFWWNAMGWYRQAPGKERELVASIGDSTYYADSVKGRFTISRDNAKNTVYLQMNSLKPEDTAVYYCYAEVLNYLVFGYQLGYDYWGQGTQVTVSS | low polyreactivity |
| QVQLVESGGGLVQAGGSRRLSCAASGLIFVHYTMGWYRQATGKERELVAAITSSGGSTYYAYSVKGRFTISRDNAKNTVYLEMNSMKPEDTAVYYCATKSYSPTRTRFYYWGQGTQVTVSS | high polyreactivity |
| QVQLVESGGGLVQAGGSLRLSCAASGRIFAYYAMGWYRQAPGKEREMVAAISRSGGSTYYADSVKGRFPISRDNAKNTVYLQMNSLKPEDTAVYYCAASLKVPYATMNYWGQGTQVTVSS | high polyreactivity |
| QVQLVESGGGLVQAGGSLRLSCAASGRIFFYYAMGWYRQAPGKERELVATISYSGGGTYYADSVKGRFTISRDNAKNTVYLQMNSLKPEDTAVYYCNARWGTPYYIQDFDYWGQGTQVTVSS | low polyreactivity |
| QVQHVESGGGLVQAGGSLRLSCAASGRTFRGYAMGWYRQAPGKERELVASISASGVRTYYADSVKGRFTISRDNAKNTVYLQMNSLKPEDTAVYYCNARHGGWYSVYYYWGQGTQVTVSS | high polyreactivity |
| QVQLVESGGGLVQAGGSLRLSCAASGLIFGYYAMGWYRQAPGKERELVAAITSSGASTYYADSVKGRFTISRDNAKNSVYLQMNSLKPEDTAVYYCNKYRYRSLGYDYWGQGTQVTVSS | high polyreactivity |
| QVQLVESGGGLVQAGGSLRLSCAASGSTFPYYAMGWYRQAPGKERELVAAITSSTGRTYYADSVKGRFTISRDNAKNTVYFQMNSLKPEDTAVYYCNAEVYSDPYNDHDYWGQGTQVTVSS | low polyreactivity |
